Values of other authors in US20250064829A1, “METHODS OF USING ANTI-CD79B IMMUNOCONJUGATES TO TREAT DIFFUSE LARGE B-CELL LYMPHOMA” (Genentech, Inc., priority 2019, published 2025).

Assays:
human CD20 antigen [1] = biological target: T1, human CD20 antigen (Homo sapiens, UniProt P11836); details: in vitro
T1 sequence (P11836 1-297): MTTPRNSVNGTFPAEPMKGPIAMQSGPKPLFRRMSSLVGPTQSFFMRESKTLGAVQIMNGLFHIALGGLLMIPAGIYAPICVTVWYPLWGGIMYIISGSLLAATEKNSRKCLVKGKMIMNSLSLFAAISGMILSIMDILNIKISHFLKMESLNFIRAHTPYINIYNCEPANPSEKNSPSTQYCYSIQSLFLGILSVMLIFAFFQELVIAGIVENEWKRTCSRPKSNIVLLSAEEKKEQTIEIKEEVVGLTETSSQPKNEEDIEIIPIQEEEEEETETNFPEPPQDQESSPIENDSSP

human CD20 antigen [2] = biological target: T1, human CD20 antigen; details: in vitro mechanism of action studies (Reff et al. 1994)
[3] = 1000 mg/m^2 at fixed dose rate of 10 mg/m^2/min compared to the standard 30-minute IV schedule

| Compound | activity in assays that measure antibody-dependent cellular cytotoxicity (ADCC) (human CD20 antigen [1]) | human complement-dependent cytotoxicity (CDC) (human CD20 antigen [2]) | intracellular drug concentrations [3] |
| --- | --- | --- | --- |
| rituximab: anti-CD20 antibody having the CAS Registry Number 174722-31-7; type I anti-CD20 antibody | exhibits activity | exhibits human complement-dependent cytotoxicity (CDC) | – |
| Cl.Nc1ccn([C@@H]2O[C@H](CO)[C@@H](O)C2(F)F)c(=O)n1 [gemcitabine, 2′-deoxy-2′,2′-difluorocytidine monohydrochloride] | – | – | superior intracellular drug concentrations |
